Experimental findings from US20140045742A1 are described below.

B1: fusion polypeptide FP-3 (protein)
chain: GKSGTEAAGAMFLEAIPMSGGGGSGGGGSGGGGTTWEAWDRAIAEYAARIEALIRAAQEQQERNEAALREL
B2: fusion polypeptide FP-2 (protein)
chain: GRGTEAAGAMFLEAIPMSTTWMEWDKEINNYTSLIHSLIEESQNQQEKNEQELL
B3: fusion polypeptide FP-1 (protein)
chain: GRTEAAGAMFLEAIPMSGGGGSGGGGSGGGGTWQEWEQKITALLEQAQIQQEKNEYELQKLDKWASLWEWF
B4: Ac-… (peptide)
peptide: Ac-TEAAGAMFFEAIPM
B5: Ac-… (peptide)
peptide: Ac-TDAAGATAVVIA
B6: Ac-TAVVIA (peptide)
peptide: Ac-TAVVIA
B7: Ac-… (peptide)
peptide: Ac-TEAAGATAVVIA
B8: Ac-… (peptide)
peptide: Ac-SEAAASMFLEAI
B9: Ac-… (peptide)
peptide: Ac-SEAAASTAVVIA
B10: Ac-… (peptide)
peptide: Ac-TEAAGAMFLEAIVM
B11: Ac-… (peptide)
peptide: Ac-SDAAGAMFLEAI

Where no end group is shown, it is not given here.

alpha1-antitrypsin, P01009, sequence (P01009 25-418 limits assumed): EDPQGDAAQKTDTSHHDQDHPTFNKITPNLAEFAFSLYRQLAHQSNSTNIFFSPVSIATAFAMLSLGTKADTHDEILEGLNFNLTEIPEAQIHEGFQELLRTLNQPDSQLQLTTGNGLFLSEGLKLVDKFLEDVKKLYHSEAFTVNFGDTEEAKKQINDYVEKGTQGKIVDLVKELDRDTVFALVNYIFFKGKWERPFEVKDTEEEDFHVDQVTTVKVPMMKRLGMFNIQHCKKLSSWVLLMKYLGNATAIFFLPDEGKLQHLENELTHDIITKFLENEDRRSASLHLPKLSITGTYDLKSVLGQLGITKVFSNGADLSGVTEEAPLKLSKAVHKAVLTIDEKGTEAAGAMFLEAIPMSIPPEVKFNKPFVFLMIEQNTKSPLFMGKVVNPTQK

The target in the first assay is HIV HR1 peptide (heptad repeat 1) (HIV). The assay is described as follows: SPR (BIAcore), HIV HR1 peptide immobilized on CM5 chip. In general terms: Surface plasmon resonance follows binding to a sensor surface in real time, without labels.
Regarding B1, the Ka came out at 3.22e+10 M⁻¹; the Kd (usually the concentration at which binding is half-saturated) was 0.031 nM; the koff (commonly the first-order rate constant of dissociation) turned out to be 3.07e-05 s⁻¹; the kon – broadly, the second-order rate constant of association – stood at 991000 M⁻¹ s⁻¹. In the case of B2, the Ka came to 1.08e+10 M⁻¹, the Kd was 0.0924 nM, the koff turned out to be 0.000119 s⁻¹ and the kon came out at 1.29e+06 M⁻¹ s⁻¹. On the same counts, the results for B3 are 6.29e+08 M⁻¹, 1.59 nM, 0.000361 s⁻¹ and 227000 M⁻¹ s⁻¹.

Another assay addresses alpha1-antitrypsin, P01009. Briefly: in vitro association of the serpin-finger polypeptide with alpha1-antitrypsin.
In turn, B4 yielded an in vitro association T1/2 of 10 h. The molecule B5 had an in vitro association T1/2 of 16 h. For B6, the in vitro association T1/2 worked out at 16 h. The same measure, in the same setting: in the case of B7 it was 9.5 h; in that of B8, 4 h.

Molecule B9 gave an in vitro association T1/2 of 1.4 h. The molecule B10 yielded an in vitro association T1/2 of 10 h.

Regarding B11, the in vitro association T1/2 worked out at 16 h.
